# In the DeepSol protein solubility set:
# Test: soluble on expression in E. coli; label from the status in PepcDB or PDB records
row,Sequence,soluble on expression in E. coli
1,LHPEPQSQHELGNVFLKFKDKFCVYEEYCSNHEKALRLLVELNKIPTVRAFLLSCMLLGGRKTTDIPLEGYLLSPIQRICKYPLLLKELAKRTPGKHPDHPAVQSALQAMKTVCSNINETKRQMEKLEALEQLQSHIEGWEGSNLTDICTQLLLQGTLLKISAGNIQERAFFLFDNLLVYCKRKSRVTGSKKSTKRTKSINGSLYIFRGRINTEVMEVENVEDGTADYHSNGYTVTNGWKIHNTAKNKWFVCMAKTAEEKQKWLDAIIREREQRESLKLGMERDAYVMIAEKGEKLYHMMMNKKVNLIKDRRRKLSTVPKCFLGNEFVAWLLEIGEISKTEEGVNLGQALLENGIIHHVSDKHQFKNEQVMYRFRYDDGTYKARSELEDIMSKGVRLYCRLHSLYTPVIKDRDYHLKTYKSVLPGSKLVDWLLAQGDCQTREEAVALGVGLCNNGFMHHVLEKSEFRDESQYFRFHADEEMEGTSSKNKQLRNDFKLVENILAKRLLILPQEEDYGFDIEEKNKAVVVKSVQRGSLAEVAGLQVGRKIYSINEDLVFLRPFSEVESILNQSFCSRRPLRLLVATKAKEIIKIPDQPDTLCFQIRGAAPPYVYAVGRGSEAMAAGLCAGQCILKVNGSNVMNDGAPEVLEHFQAFRSRREEALGLYQWIYHTHEDAQEARASQEASTEDPSGEQAQEEDQADSAFPLLSLGPRLSLCEDSPMVTLTVDNVHLEHGVVYEYVSTAGVRCHVLEKIVEPRGCFGLTAKILEAFAANDSVFVENCRRLMALSSAIVTMPHFEFRNICDTKLESIGQRIACYQEFAAQLKSRVSPPFKQAPLEPHPLCGLDFCPTNCHINLMEVSYPKTTPSVGRSFSIRFGRKPSLIGLDPEQGHLNPMSYTQHCITTMAAPSWKCLPAAEGDPQGQGLHDGSFGPASGTLGQEDRGLSFLLKQEDREIQDAYLQLFTKLDVALKEMKQYVTQINRLLSTITEPTSGGSCDTSLAEEASSLPLVSEESEMDRSDHGGIKKVCFKVAEEDQEDSGHDTMSYRDSYSECNSNRDSVLSYTSVRSNSSYLGSDEMGSGDELPCDMRIPSDKQDKLHGCLEHLFNQVDSINALLKGPVMSRAFEETKHFPMNHSLQAIHPFTHSATHAPINPSVHPPLHPTTHLPSIHPPTHPPTHPSIYPPTHPSIHLLVCPSIHPSLLPSVCPLFHPSTHSFIIYLSIHASVHPVNNFPEPACARPCTGHWRP,soluble
2,MSLTDPAPEPEPPVEGQWTALTASPDTWDETKRADISYQLLLYSFADSDGDGYGDLNGVTQKLDYLNQLGVKALWLSPIHPCMSYHGYDVTDYTKVNPQLGTESDFDRLVTEAHNRGIKIYLDYVMNHTGTAHPWFTEASSSSESPYRNYYSFSEDPKTDIAAGKIAMITQEGAAGYNAAEWFQVSDETAAVKGLLKFTLDWSNAPSPILVVSTGTKADEDNPDTGTDNAKYLYYGEDICKKFYDKGNNIYELTVDFESTWGLLIRTSNASFWPSGTKYGASSSSEKLALNKDFKLTNAGNPANIMFDSQQITYFHSHFCTDWFADLNYGPVDQAGESPAYQAIADAAKGWIARGVDGLRLDAVKHIYHSETSEENPRFLKMFYEDMNAYYKQKGHTDDFYMIGEVLSEYDKVAPYYKGLPALFEFSFWYRLEWGINNSTGCYFAKDILSYQQKYANYRSDYIEATKLSNHDEDRTSSKLGKSADKCKLAAAVLLTSAGHPYIYYGEELGLYGTKDNGDEYVRSPMLWGDSYTTNYTDKTDATVSKNVKTVADQQADTHSLLNIYFSLTRLRNTYPALAEGNMTKHSVYNESQEKDYKPIAAWYMTKDNEKLLVIHNFGGTAMQLPLTDKIEKVLFVNGETQQNTDSDSYTLKLGGYASVVFKLGNEGHHHHHH,soluble
3,MSLILTLDPQVAGASGDMVLGALIAVGADPNRLEEVVHEVSSLGHEVDVHVHEIQKRGIRAVRVEVDAEGDLRDPDELREAVKTVAENVLEDRWRELPELALKYLLRAEERVHGDLCHLHELGSSDTVVDLVGTAALLEDLNPKASEVLPPNVGSGTVETEHGRLPVPAPAVVEVLSEWDVGIVREGEGELLTPTGAALLRTIDELLPDPPPPYRVKRQGFGAGTKDLPDRPNVLRALICEPGGSGEHVRIVETSVDDVDGEAVGELIEAVLQLEGVHDVEVLHGFGKKGRPRFVIRVVTEDRPGIEREVFRELFRWTGTLGARVYRCTRVTADRRIVDVDGIRVKVSRFEDVHHAKPEWEDVRRKVDRESAPLTRARLVGDLRKRYEGDGEDGAGDEGHHHHHH,soluble
4,MAEMSEKTPELGDALRVGARVLVRRPSETAATGAAVEDCADLVPAQDRGHEWAPVPRWAVALDDGRLVFADTEDLTVNPSPGAPEGEIGKAVEPK,not soluble
5,MKILFVAAEGAPFSKTGGLGDVIGALPKSLVKAGHEVAVILPYYDMVEAKFGNQIEDVLHFEVSVGWRRQYCGIKKTVLNGVTFYFIDNQYYFFRGHVYGDFDDGERFAFFQLAAIEAMERIDFIPDLLHVHDYHTAMIPFLLKEKYRWIQAYEDIETVLTIHNLEFQGQFSEGMLGDLFGVGFERYADGTLRWNNCLNWMKAGILYANRVSTVSPSYAHEIMTSQFGCNLDQILKMESGKVSGIVNGIDADLYNPQTDALLDYHFNQEDLSGKAKNKAKLQERVGLPVRADVPLVGIVSRLTRQKGFDVVVESLHHILQEDVQIVLLGTGDPAFEGAFSWFAQIYPDKLSTNITFDVKLAQEIYAACDLFLMPSRFEPCGLSQMMAMRYGTLPLVHEVGGLRDTVRAFNPIEGSGTGFSFDNLSPYWLNWTFQTALDLYRNHPDIWRNLQKQAMESDFSWDTACKSYLDLYHSLVN,not soluble
6,AYQLYRNTTLGNSLQESLDELIQSQQITPQLALQVLLQFDKAINAALAQRVRNRVNFRGSLNTYRFCDNVWTFVLNDVEFREVTELIKVDKVKIVACDGKNTGSNTTE,soluble
7,MKHLLPFATVILALGIVGCQKVETTAPEKIKQDTQTKQQVSVTPERPSDAELNAVKVYHHMKYMEATAKLAGGTNKLLHTKKLPTEGSDAVVTPALDHLYSKGVIDLSNGPVTIEYPEVDEGRYYSIHVTDQEHYTIFDKIHPVGKFTFVRKGKNMEVPEGATVIESPGDYPHLFIRVQVKTPEDLVNALSIQEKITLTANSSKTLIVDNPIKHTLATHDVYSQNKELMVSSVNFTHQDYLRVSEYLGVVAPNMGPTGNIGLFGPIDSNEPNSDDYLFRAVGIIGHLGLPLEHAYYGPYFTNCENQLLMGDKTEVFTLPYEPEGVELFWSVTRYSALTRNTLPGKNDLINAYNTKPDANGNISITFSADSPNDGTYWMPVNSGEPYYFVVRYYKPDVNNLPEKPCSLEHHHHHH,not soluble
8,GHMYQHHNWQGALLDYPVSKVVCVGSNYAKHIKEMGSAVPEEPVLFIKPETALCDLRQPLAIPSDFGSVHHEVELAVLIGATLRQATEEHVRKAIAGYGVALDLTLRDVQGKMKKAGQPWEKAKAFDNSCPLSGFIPAAEFTGDPQNTTLSLSVNGEQRQQGTTADMIHKIVPLIAYMSKFFTLKAGDVVLTGTPDGVGPLQSGDELTVTFDGHSLTTRVLGS,soluble
9,MKGLRLPESMREELAKPHGKLYRGKGEKLLLEVEEISEAKPFCTVGDLVTASAIKVGLTPDLAVADGKTLREENVEFEQEAFDEVIETTNPPAHISCELISALLKALKLCEDGKKVLVFVDGEEDLAVVPLVKLLPLGALILYGQPGEGVVALKVDEEKKVLILNLLNKMEIIGECDELKYLLGGD,not soluble
10,MRTFESVADLAAAAGEKVGQSDWVTITQEEVNLFADATGDHQWIHVDPERAAAGPFGTTIAHGFMTLALLPRLQHQMYTVKGVKLAINYGLNKVRFPAPVPVGSRVRATSSLVGVEDLGNGTVQATVSTTVEVEGSAKPACVAESIVRYVA,soluble
11,MDENALRFASYWRNSLADAESGKGCFERKDAQNFTHWHGIAAGRLDEAIVNKFFKGEKDDVETVNVILRPKVYFRLLQHGKDRSAGTPDIVTPIVTPALLSREGFLYPTPATSIPRDLLEPLPKGAFSIGEIGQYDKYKTTHTDPTHVMWTRP,not soluble
12,MSLRDLLLIDHPLCQAVFSRQGAQLLHFQPQGERPLLWCAGEWPALSSAPVRGGIPVCWPWFGSHPNGSEWPQQGWARQREWRLLDAYADESKVVVSWQLDLEDWHVRLDARLGQRLELELCSYHEEDDDCLFSFALQPYWRVGALSRVVVHGMELESARGQRGASRIPGTWIPRGAVKQVLYHPGSLVLEDGGWNRRLRIDKNVSAGSVIWHPGSRPVEQVEPGEAERFLCIGAAGYRPGGLILAPGERMRLSLAAGLQEGHHHHHH,not soluble
13,GSMSSFLGKWKLSESHNFDAVMSKLGVSWATRQIGNTVTPTVTFTMDGDKMTMLTESTFKNLSCTFKFGEEFDEKTSDGRNVKSVVEKNSESKLTQTQVDPKNTTVIVREVDGDTMKTTVTVGDVTAIRNYKRLS,soluble
14,MPAEPQKSTEAGSVAPEKKLKACCACPETKRVRDACIIENGEEKCGKLIEAHKACMRAAGFNI,soluble
15,MFSQWVFLSVLALAVPSFAWAEDAVSDLAREQSKAEQGDKRGDELFAEFTRLRQAAETGEPQALFDFGAYFYQQQNYASAREWWGKAAAAGMVRAQIQLAMLYRDGDGGPQDKTEAARWFRKAAEQGDAAAQNEMGVLYWRGEGVDQDRVKAGTWFERAAASGSEDAETNLGWFYLDDSQGVYSATSDEEAALLDRYAGSREKAFQWFCKAATQGDARAQFKVGEAYWNGSGAGMNKLQARLWLEKAAQQQDADAIAWLESAANAAWYTRLENWIHAALDGELSGVADCSGAADRRHSGRGMEGAPSDPEAVEASAEDAQQAVEAASQ,not soluble
16,MGSDKIHHHHHHMENVSSVTSDGSVADVHAERWQELLARLDADAPDIAEGTAAKLLATIPGYELVDAGPIRESSIRNTALIIRVINAGTEPKAEDLPEALRLADERIAQNVPLGSVLHGFRMSLGEILEHLVQLGPEYNIDPGRMLRWSTLMWAVNDAFSTRATRVYRDHEVATAIADSVRRSEWIGKAVSEGSELSELLWGAAMYDVPADTPLRALAATSPDHAKAETQIQKWTQRAGVRVLASVQPSVIVGIVIGEPKRNVDGPGFAVGLGRAEVLSKLADSYKDASLVLKAADNLKLNEVQRAQDLSWKLAIHASPRVTEILAQKYVKPLRESGEFAHEIVESLRAYVDNQMNIPAAARSIPVHVNTLRYRLRRFEELTGCYLEDTSTVIEVSWVLEVFGREL,not soluble
17,MHVALHTVRMYPRNTSMVAIPSRELSPRRDGFRELLETNYQKRDLVHLTAGSVVPLLKNSIWLVVRGMVKLGAVSVHGDELLLGLAGPNEPFGEPLSTVEAYEAVALSDCDLLCLSANEVEQAPQLALAMMDAIGARYRQAEYMLALLGLRRVEERVRGFLEMLAQDYGQPCDDGLRLNLRLTHQEMASALSTTRVTVTRVIGLLRDEGWLKIDAQRHLVIAHLPRR,not soluble
18,MDGFDASPKAIAARRAKVFDPVGGYEYFVNTYFPHYIRSPEKSELHAFLFSRLPEIIRSPKGENEAVGAPRGEGKSTKVTQLFTLWCIVTGQKHYAVIVMDSIDQAYPMLEAIKAELEFNPRLKTDFPEVCGQGRVWQAGTIVTANDVKVQVAGSGKKLRGLRHGPYRPDLTVLDDIENDEQVRNPEQRDKLNAWLTKTVLPLGGVGQKYDVIYIGTILHYDSVLNRTLNNPFWHGIKFKAMKRWPDRMDLWDRWEELFRNDGETVAEAFYQANKDEMERGAVTSWAARGVLALMKIRARDGHATFDSEYQNDPVSGEDAPFAKSMKFWNDLPSDLVYFGALDPSLGKAGASRDPSAIIIGGYQRVTGKLYVVEAQIKKRLPDLIIEDVIRLHRQYRCKLWFVETVQFQEFLKDELVKRSAARGIPVPARAVKPVSDKLLRIETLQPHMANGLILLNESQQTLIQQFRHFPKADHDDGPDAVHMLWSGAVANCVPIEWQSPTDNDFDDEIKSKWSR,not soluble
